Measured values as given in patent publication US20090202532A1 (TOHOKU UNIVERSITY, published 2009).

Biological target: human EGF receptor 1 (human, UniProt P00533 25-1210)
Experiment: cell-based or functional assay

B1: Ex3 scFv-Fc, IgG-type bispecific antibody of OHL-Fc and 5HL-CL (bispecific antibody)
heavy: not shown
light: QVQLVQSGAEVKKPGASVKVSCKASGYTFTSYWMHWVRQAPGQGLEWMGNIYPGSGGTNYAEKFKNRVTMTRDTSISTAYMELSRLRSDDTAVYYCARSGGPYFFDYWGQGTLVTVSSAGGGGSGGGGSGGGGSDIVMTQSPLSLPVTPGEPASISCRSSQNIVHNNGITYLEWYLQKPGQSPQLLIYKVSDRFSGVPDRFSGSGSGTDFTLKISRVEAEDVGVYYCFQGSHIPPTFGQGTKVEIKRTVAAPSVFIFPPSDEQLKSGTASVVCLLNNFYPREAKVQWKVDNALQSGNSQESVTEQDSKDSTYSLSSTLTLSKADYEKHKVYACEVTHQGLSSPVTKSFNRGEC
- cytotoxicity, 51Cr release assay (Colo-Tc, EGFR/CHO and CHO cells): ~0.002 fold of the concentration of Ex3
